Molecular target: T1, integrin αVβ5 (Homo sapiens, UniProt P06756)
T1 chain 1: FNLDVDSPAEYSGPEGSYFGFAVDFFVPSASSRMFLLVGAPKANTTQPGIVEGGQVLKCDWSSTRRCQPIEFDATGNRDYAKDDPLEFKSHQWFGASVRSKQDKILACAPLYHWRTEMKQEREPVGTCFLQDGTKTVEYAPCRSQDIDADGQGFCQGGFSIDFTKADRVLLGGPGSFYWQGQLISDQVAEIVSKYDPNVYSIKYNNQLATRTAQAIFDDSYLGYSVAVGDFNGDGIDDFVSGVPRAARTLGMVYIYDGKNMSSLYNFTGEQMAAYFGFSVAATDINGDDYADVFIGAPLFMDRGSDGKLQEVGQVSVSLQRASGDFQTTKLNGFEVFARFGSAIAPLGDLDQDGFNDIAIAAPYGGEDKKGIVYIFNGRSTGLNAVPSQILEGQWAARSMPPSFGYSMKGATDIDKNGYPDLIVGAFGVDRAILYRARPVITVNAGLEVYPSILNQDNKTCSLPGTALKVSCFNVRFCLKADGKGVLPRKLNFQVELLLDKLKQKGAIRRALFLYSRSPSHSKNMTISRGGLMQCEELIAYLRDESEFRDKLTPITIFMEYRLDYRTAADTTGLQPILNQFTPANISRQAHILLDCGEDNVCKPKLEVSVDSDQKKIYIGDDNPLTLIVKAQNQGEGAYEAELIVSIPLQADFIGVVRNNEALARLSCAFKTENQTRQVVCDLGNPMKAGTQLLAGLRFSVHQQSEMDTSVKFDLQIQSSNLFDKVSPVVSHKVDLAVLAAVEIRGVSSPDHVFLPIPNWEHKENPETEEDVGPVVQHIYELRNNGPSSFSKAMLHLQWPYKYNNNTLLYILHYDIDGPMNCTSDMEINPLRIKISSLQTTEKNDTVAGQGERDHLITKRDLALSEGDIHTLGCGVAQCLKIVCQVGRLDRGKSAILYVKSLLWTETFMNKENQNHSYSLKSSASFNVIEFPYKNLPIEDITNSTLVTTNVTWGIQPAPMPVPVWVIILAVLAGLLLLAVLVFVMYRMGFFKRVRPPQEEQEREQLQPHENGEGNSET
T1 chain 2: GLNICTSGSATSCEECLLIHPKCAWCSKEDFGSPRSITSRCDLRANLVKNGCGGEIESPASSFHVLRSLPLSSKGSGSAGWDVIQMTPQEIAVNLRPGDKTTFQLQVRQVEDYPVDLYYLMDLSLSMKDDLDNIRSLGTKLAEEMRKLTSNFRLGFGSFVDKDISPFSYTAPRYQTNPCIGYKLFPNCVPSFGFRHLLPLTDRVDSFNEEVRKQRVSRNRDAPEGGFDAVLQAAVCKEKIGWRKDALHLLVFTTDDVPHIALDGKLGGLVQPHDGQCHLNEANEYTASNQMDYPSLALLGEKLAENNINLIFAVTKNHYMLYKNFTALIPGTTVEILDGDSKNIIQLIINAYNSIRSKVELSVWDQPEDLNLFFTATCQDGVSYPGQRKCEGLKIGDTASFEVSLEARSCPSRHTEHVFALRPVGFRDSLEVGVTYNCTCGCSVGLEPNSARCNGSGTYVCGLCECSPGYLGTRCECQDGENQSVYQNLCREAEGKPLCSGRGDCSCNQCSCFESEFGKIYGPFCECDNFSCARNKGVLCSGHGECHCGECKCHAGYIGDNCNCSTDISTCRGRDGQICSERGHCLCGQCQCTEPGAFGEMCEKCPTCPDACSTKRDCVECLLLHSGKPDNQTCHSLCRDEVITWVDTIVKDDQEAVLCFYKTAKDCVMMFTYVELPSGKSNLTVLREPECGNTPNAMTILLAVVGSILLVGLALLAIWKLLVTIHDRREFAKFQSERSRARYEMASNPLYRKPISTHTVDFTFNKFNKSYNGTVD
Test: solid-phase binding assay (fluorescent immunoassay)

B1: PilY1 532-1163 (protein)
chain: AGDLTRYSLTTQDKATVQTKLWSAQSILDAMPNGGAGRKIMMAGSGTSGLKEFTWGSLSADQQRQLNRDPDRNDVADTKGQDRVAFLRGDRSKENSDNFRTRNSILGDIINSSPATVGKAQYLTYLAQPIEPSGNYSTFAEAQKTRAPRVYVGANDGMLHGFDTDGNETFAFIPSAVFEKLHKLTARGYQGGAHQFYVDGSPVVADAFFGGAWHTVLIGSLRAGGKGLFALDVTDPANIKLLWEIGVDQEPDLGYSFPKPTVARLHNGKWAVVTGNGYSSLNDKAALLIIDLETGAITRKLEVTGRTGVPNGLSSPRLADNNSDGVADYAYAGDLQGNLWRFDLIAGKVNQDDPFSRANDGPAVASSFRVSFGGQPLYSAVDSAGAAQAITAAPSLVRHPTRKGYIVIFGTGKYFENADARADTSRAQTLYGIWDQQTKGEAAGSTPRLTRGNLQQQTLDLQADSTFASTARTIRIASQNPVNWLNNDGSTKQSGWYLDFMVNGTLKGEMLIEDMIAIGQVVLLQTITPNDDPCADGASNWTYGLDPYTGGRTSFTVFDLARQGVVDSKSDYSYNKQNVAVSGTEQKGLGGLTLSTNEQGNPEVCSSGECLTVNPGPNTRGRQNWRPIEGKN
Kd: 164 nM
